Test results published in patent US20130123349A1 (US Dept. of Health and Human Services, published 2013).

What was measured:
[1] = target: T1, soluble collagen type I (pepsin-digested, non-fibrillar, triple helical; BD Biosciences) (human, UniProt P02452 179-1192; P08123 91-1104); experiment: SPR, C-terminus-2 (5 to 250 nM) over immobilized soluble collagen type I, two-state model
T1 construct: also called collagen I; monomeric type I collagen

[2] = target: T1, soluble collagen type I …; experiment: SPR, global two-state binding model, immobilized soluble collagen type I
[3] = target: T2, heat-denatured soluble collagen type I (90 min at 98 °C) (human, UniProt P02452 179-1192; P08123 91-1104); experiment: SPR, Aegyptin over immobilized heat-denatured collagen type I, two-state model; Ka1
T2 construct: also called Collagen denatured; heat-denatured collagen
T2 sequence (P02452 179-1192, chain 1 of 2): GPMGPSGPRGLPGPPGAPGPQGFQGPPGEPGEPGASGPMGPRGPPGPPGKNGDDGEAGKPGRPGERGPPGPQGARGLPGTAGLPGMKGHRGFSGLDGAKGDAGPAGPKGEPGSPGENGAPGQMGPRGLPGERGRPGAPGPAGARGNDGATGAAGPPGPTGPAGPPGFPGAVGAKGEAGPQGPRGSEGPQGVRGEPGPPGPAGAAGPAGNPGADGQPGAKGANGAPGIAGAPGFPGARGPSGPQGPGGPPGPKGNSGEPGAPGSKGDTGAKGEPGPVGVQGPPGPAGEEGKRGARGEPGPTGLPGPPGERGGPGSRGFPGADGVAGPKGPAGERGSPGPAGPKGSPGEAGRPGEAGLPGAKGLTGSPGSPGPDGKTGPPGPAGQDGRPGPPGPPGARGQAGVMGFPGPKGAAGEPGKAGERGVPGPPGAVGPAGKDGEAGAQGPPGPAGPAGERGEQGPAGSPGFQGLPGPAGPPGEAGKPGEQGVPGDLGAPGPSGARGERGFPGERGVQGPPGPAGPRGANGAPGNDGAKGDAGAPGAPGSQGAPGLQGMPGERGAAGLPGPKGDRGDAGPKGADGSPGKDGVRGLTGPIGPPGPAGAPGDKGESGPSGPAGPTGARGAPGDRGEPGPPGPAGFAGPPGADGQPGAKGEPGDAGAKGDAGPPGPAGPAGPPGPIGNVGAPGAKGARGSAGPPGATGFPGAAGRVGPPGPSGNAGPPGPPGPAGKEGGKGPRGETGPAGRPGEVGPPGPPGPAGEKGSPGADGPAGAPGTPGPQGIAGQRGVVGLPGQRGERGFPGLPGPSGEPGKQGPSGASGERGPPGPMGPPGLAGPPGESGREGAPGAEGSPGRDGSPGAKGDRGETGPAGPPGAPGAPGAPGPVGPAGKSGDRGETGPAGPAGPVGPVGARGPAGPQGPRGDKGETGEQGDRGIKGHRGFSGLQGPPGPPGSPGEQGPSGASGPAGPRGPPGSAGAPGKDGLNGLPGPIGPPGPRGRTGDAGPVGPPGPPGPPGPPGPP
T2 sequence (P08123 91-1104, chain 2 of 2): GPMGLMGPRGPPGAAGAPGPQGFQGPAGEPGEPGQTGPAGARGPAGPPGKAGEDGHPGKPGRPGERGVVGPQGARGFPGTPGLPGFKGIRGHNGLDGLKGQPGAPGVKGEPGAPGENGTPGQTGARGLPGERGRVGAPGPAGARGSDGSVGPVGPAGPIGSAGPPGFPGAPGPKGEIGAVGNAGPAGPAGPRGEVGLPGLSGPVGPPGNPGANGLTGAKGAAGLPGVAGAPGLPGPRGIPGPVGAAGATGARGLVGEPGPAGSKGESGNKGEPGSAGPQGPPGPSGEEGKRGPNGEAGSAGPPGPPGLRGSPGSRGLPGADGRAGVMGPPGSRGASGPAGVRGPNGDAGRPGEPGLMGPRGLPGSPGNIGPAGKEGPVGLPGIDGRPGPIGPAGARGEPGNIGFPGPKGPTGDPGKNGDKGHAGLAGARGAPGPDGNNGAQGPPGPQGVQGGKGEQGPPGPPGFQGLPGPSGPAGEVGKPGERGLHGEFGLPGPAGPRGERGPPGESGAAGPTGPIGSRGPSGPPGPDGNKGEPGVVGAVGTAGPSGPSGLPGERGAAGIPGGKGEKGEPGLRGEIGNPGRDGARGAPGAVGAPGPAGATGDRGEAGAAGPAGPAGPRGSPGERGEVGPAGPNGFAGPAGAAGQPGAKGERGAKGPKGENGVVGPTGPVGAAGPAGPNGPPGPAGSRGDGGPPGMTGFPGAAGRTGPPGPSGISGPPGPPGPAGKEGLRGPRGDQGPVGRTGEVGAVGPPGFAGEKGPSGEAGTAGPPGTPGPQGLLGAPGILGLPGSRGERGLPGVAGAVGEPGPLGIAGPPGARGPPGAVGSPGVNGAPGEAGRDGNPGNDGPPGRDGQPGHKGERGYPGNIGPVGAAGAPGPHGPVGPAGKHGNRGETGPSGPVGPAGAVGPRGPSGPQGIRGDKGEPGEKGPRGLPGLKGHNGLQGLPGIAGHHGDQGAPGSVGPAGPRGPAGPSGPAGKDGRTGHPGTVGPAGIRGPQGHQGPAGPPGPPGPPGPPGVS

[4] = target: T1, soluble collagen type I …; experiment: SPR at 15-40 °C, van't Hoff analysis, Aegyptin over immobilized collagen type I; value (±SE)
[5] = target: T3, soluble collagen type III (pepsin-digested, non-fibrillar; BD Biosciences) (human, UniProt P02461 168-1196); experiment: ELISA, inhibition of vWf (3 nM) binding to coated soluble collagen type III; competitor vWf
T3 construct: also called collagen III; soluble collagen III
T3 sequence: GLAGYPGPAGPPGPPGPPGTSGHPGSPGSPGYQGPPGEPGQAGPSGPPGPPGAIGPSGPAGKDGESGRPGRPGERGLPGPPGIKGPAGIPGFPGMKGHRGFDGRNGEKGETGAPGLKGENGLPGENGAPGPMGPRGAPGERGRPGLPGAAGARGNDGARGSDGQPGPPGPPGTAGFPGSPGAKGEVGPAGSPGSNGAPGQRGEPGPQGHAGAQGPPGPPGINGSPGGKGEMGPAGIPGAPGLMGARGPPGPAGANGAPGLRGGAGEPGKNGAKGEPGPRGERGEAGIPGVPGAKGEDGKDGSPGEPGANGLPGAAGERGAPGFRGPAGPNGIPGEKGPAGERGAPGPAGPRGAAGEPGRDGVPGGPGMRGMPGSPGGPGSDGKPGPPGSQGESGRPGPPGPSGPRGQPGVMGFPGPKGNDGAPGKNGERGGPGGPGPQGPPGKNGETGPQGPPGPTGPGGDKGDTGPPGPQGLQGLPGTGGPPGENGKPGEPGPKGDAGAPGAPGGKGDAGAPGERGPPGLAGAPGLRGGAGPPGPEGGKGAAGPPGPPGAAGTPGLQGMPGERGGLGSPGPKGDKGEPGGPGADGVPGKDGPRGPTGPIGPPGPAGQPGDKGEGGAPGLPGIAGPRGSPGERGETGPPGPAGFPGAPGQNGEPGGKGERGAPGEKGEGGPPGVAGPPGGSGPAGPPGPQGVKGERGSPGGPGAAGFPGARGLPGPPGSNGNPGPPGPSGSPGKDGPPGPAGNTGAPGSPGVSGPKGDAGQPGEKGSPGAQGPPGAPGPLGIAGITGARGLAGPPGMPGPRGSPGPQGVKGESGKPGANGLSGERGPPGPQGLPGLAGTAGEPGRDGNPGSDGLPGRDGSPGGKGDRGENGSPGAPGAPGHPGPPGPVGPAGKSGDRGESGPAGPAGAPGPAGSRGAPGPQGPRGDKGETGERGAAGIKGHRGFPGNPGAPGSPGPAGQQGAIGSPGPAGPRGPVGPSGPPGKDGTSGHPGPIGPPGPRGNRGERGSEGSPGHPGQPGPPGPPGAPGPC

[6] = target: T1, soluble collagen type I …; experiment: SPR, Aegyptin over immobilized soluble collagen type I, 180 s at 30 µl/min, two-state model; Ka1
[7] = target: T1, soluble collagen type I …; experiment: SPR, […]; concentration not given

T1 sequence (P02452 179-1192 limits assumed, chain 1 of 2): as the sequence (P02452 179-1192, chain 1 of 2) above
T1 sequence (P08123 91-1104 limits assumed, chain 2 of 2): as the sequence (P08123 91-1104, chain 2 of 2) above

B1: C-terminus-2 of Aegyptin (137 aa) (other)
chain: GGDEGEDNAEDSKGSEKNDPADTYRQVVALLDKDTKVDHIQSEYLRSALNNDLQSEVRVPVVEAIGRIGDYSKIQGCFKSMGKDVKKVISEEEKKFKSLMSKKKSEYQCSEDSFAAAKSKLSPITSKIKSCVSSKGR
notes: also called C-terminal-2; C-terminus 2 domain
With B1 the Kd [1] was roughly 60 nM and the Kd [2] was 60.9 nM.

B2: recombinant Aegyptin (other)
chain: RPMPEDEEPVAEGGDDDASGESEGEEETTDDAGGDGGEEENEGEEHAGDKDAGGEDTGKEENTGHDDAGEEDAGEEDAGEEDAGEEDAGEEDAEKEEGEKEDAGDDAGSDDGEEDSTGGDEGEDNAEDSKGSEKNDPADTYRQVVALLDKDTKVDHIQSEYLRSALNNDLQSEVRVPVVEAIGRIGDYSKIQGCFKSMGKDVKKVISEEEKKFKSCMSKKKSEYQCSEDSFAAAKSKLSPITSKIKSCVSSKGRHHHHHH
In the case of B2, the kon [3] is reported as 674000 M⁻¹ s⁻¹, the “ΔS°” value [4] is reported as 95 J/(K * mol) and the IC50 [5] is reported as 50 nM. For the same binder, the kon [6] was 3.63e+06 M⁻¹ s⁻¹.

B3: C-terminus 1 of Aegyptin (113 aa) (other)
chain: RQVVALLDKDTKVDHIQSEYLRSALNNDLQSEVRVPVVEAIGRIGDYSKIQGCFKSMGKDVKKVISEEEKKFKSCMSKKKSEYQCSEDSFAAAKSKLSPITSKIKSCVSSKGR
B3: no binding [7].
